The source of these data is US20210230266A1 (SINGAPORE HEALTH SERVICES PTE, published 2021).

Changes are numbered by the printed parent chain.

The target in test [1] is T1, FLAG-tagged human IL-11 expressed at the surface of transiently transfected cells (human, UniProt P20809 22-199).
T1 construct: also called IL-11 expressing HEK cells; target cells expressing human IL-11 at their surface; not shown: FLAG tag added to the N-terminus
T1 sequence: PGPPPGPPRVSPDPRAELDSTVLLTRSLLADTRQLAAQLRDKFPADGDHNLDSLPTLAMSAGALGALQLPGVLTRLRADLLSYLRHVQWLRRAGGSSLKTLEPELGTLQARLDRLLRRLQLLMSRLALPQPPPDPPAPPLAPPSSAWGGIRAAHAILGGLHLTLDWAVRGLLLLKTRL
Put plainly: flow cytometry, hybridoma supernatant on cells transfected with pB1-IL11-hum.FL; relative to the anti-FLAG positive control (100%). (In flow cytometry, cells or beads pass a laser one at a time.)

The target in test [2] is T1, FLAG-tagged human IL-11 expressed at …. Put plainly: flow cytometry, hybridoma supernatant on cells transfected with pB1-IL11-hum.FL.
Test [3] addresses T2, Human IL-11 (human, UniProt P20809 22-199).
T2 sequence: T1 sequence
In words: cell-based or functional assay.

A further test deals with T3, Mouse IL-11 (mouse, UniProt P47873 22-199, limits assumed).
T3 construct: also called murine IL-11; recombinant murine IL-11
T3 sequence (looked up): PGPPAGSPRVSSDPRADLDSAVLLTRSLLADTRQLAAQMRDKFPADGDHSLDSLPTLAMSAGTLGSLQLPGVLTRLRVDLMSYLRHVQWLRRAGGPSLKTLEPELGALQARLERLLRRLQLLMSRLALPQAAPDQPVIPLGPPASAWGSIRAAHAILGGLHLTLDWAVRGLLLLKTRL
Put plainly: ELISA. On the procedure:
(§1) The soluble scFv were produced by recombinant expression in E. coli, and analysed for their ability to bind to human IL-11 and murine IL-11 by ELISA. Briefly, the respective antigen was coated to wells of an ELISA plate, the cell culture supernatant containing the respective scFv was added at a 1:2 dilution, and binding was detected.
For orientation: ELISA stands for enzyme-linked immunosorbent assay.

Test [4] addresses T2, Human IL-11. Put plainly: ELISA. As for the experimental part:
as §1

In test [5] the target is T2, Human IL-11. Put plainly: ELISA on coated recombinant human IL-11 (100 ng/well), scFv-Fc. As for the experimental part:
The light chain shuffled anti-IL-11 antibodies were analysed to determine the EC50 for binding to human IL-11 by ELISA according to standard methods. Briefly, wells of microtiter plates were coated with recombinant human IL-11 (100 ng/well), scFv-Fc comprising the VH and VL domains of the clones were added in a dilution series and antibody binding was detected using a polyclonal antibody detection system.

Test [6] has as its target T2, Human IL-11. In words: SPR (BIAcore T200) single cycle kinetics, human IL-11 on CM5 chip, 1:1 model. The text has this:
HEK293 EBNDA cells were transfected with vectors encoding scFv corresponding to YU100-H01, 01A, 01G, 01I, 01L, 01Q, 01S, 01T, 01V, YU100-G08, 02A, 02G, 02I, 02L, 02Q, 02S, 02T or 02V.
A general note: Surface plasmon resonance follows binding to a sensor surface in real time, without labels.

The target in test [7] is T2, Human IL-11. In words: SPR, Single Cycle Kinetics, BIAcore T200; human IL-11 immobilised on CM5 chip, antibody in IgG1 format as analyte, 1:1 model.

B1: BSN-8H11 (antibody, IgG2b, V domains shown)
VH: EVQLQQSGPELVKPGASVKIPCKASGYTFTDYNIDWVKQSHGKSLEWIGDINPNYGGTLYNQKFKGKATLTVDKSSSTAYMELRSLTSEDTAVYYCARGELGHWYFDVWGTGTTVTVSS
VL: DIVLTQSPASLAVSLGQRATISCRASKSVSTSDYSYMHWYQQKPGHPPKLLIYLASNLESGVPARFSGSGSGTDFTLNIHPVEEEDAATYFCQHSRDLPPTFGGGTKLEIK
notes: also called A16
For B1, the “binding relative to anti-FLAG positive control” value in test [1] is 190%. Moreover, the GMFI in test [2] came out at 239000.

B2: YU112-E07 (antibody)
chain: QVQLVQSGGGVVQPGRSLRLSCAASGFTFGSYGMHWVRQAPGKGLEWVAVISYDGSNKYYADSVKGRFTISRDNSKNTLYLQMNSLRAEDTAVYYCAKGSYYFDYWGQGTLVTVSSGSASAPKLEEGEFSEARVEIVMTQSPDSLAVSLGERATINCKSSQSVNSAYLAWYQHKPGQPPRLLIYGASRRVTGVPDRFSGSGSGTDFTLTISSLQPEDFATYYCQQSYSDPRWTFGQGTKVEIK
As a reminder, the EC50 is the midpoint of the concentration-response curve. As for B2, in the test with Human IL-11 [3], the “MMP2 production, Experiment 1 (human atrial fibroblasts + TGFB1)” value is 53.5 ng/mL and the “MMP2 production, Experiment 2 (human atrial fibroblasts + TGFB1)” value was found to be 49.1 ng/mL. Further, the “mIL11 - average signal” value with Mouse IL-11 was found to be 0.561. Besides, the “hIL11 - average signal” value in the test with Human IL-11 [4] was determined as 0.71. Besides, the half-maximal effective concentration (EC50) in the test with Human IL-11 [5] is 0.058 µg/mL.

B3: YU100-G08 (antibody, human IgG1, V domains shown)
VH: QVQLVQSGGGVVQPGRSLRLSCAASGFTFSSYGMHWVRQAPGKGLEWVAVISYDGSNKYYADSVKGRFTISRDNSKNTLYLQMNSLRAEDTAVYYCAKIGATDPLDYWGQGTLVTVSS
VL: QSALTQPRSVSGSPGQSVTLSCTGTSSDVGGYNYVSWYQHYPGKAPKLMIFDVNERSSGVPDRFSGSKSGNTASLTISGLQAEDEADYYCCSYAGRYTWMFGGGTKVTVLG
notes: Light chain shuffled human antibody; Only the variable domains are tied to the clone
By Kd is commonly meant the equilibrium constant for the complex coming apart. Read a high Kd as a looser complex. Broadly, the koff is a measure of how fast the partners let go of each other. A high value points to a short-lived complex. By kon is commonly meant a measure of how fast the partners come together. Read a high kon as fast association. For the molecule B3, in the test with Human IL-11 [3], the “MMP2 production, Experiment 1 (human atrial fibroblasts + TGFB1)” value is 42.3 ng/mL and the “MMP2 production, Experiment 2 (human atrial fibroblasts + TGFB1)” value was determined as 38 ng/mL. Further, in the test with Mouse IL-11, the “mIL11 - average signal” value was 0.27. In the test with Human IL-11 [4], the “hIL11 - average signal” value came out at 0.153. Further, in the test with Human IL-11 [6], the dissociation constant (Kd) was determined as 3.51 nM, the koff worked out at 0.0013 s⁻¹ and the kon was 369000 M⁻¹ s⁻¹. In addition, the concentration giving a half-maximal response (EC50) in the test with Human IL-11 [5] was 0.028 µg/mL.

B4: YU100-H01 (antibody, human IgG1, V domains shown)
VH: QVQLVQSGGGVVQPGRSLRLSCAASGFTFSSYAMHWVRQAPGKGLEWVAVISYDGSNKYYADSVKGRFTISRDNSKNTLYLQMNSLRAEDTAVYYCARIMGYDYGDYDVVDYWGQGTLVTVSS
VL: B3 VL with L20I, G31A, H40Q, Y41H, F51Y, N54S, S57P, R96S, M100V, V107L
notes: as for B3
In the test with Human IL-11 [7], B4 registered a Kd of 42.3 nM, a koff of 0.000658 s⁻¹ and a kon of 14800 M⁻¹ s⁻¹. For the same molecule, in the test with Human IL-11 [3], the “MMP2 production, Experiment 1 (human atrial fibroblasts + TGFB1)” value amounted to 48.3 ng/mL and the “MMP2 production, Experiment 2 (human atrial fibroblasts + TGFB1)” value was found to be 42.2 ng/mL. Moreover, the “mIL11 - average signal” value with Mouse IL-11 worked out at 0.283. In the test with Human IL-11 [4], the “hIL11 - average signal” value was 0.43. In the test with Human IL-11 [5], the half-maximal effective concentration (EC50) was found to be 0.053 µg/mL.

B5: 01S (antibody, IgG1, V domains shown)
VH: B4 VH
VL: QSALTQPRSVSGSPGQSVTISCTGTSSDVGAYNYVSWYQQHPGKAPKLMIYDVSERPSGVPDRFSGSKSGNTASLTISGLQAEDEADYYCSSYAGSYTWVFGGGTKLTVLG
notes: C91S variant of the YU100-H01 VL
In the test with Human IL-11 [7], B5 came in with a Kd of 107 nM, a koff of 0.000905 s⁻¹ and an association rate constant (kon) of 8470 M⁻¹ s⁻¹.

B6: 01T (antibody, IgG1, V domains shown)
VH: B4 VH
VL: B5 VL with S91T
notes: C91T variant of the YU100-H01 VL
With B6, in the test with Human IL-11 [7], the Kd was found to be 17.1 nM, the koff turned out to be 0.0127 s⁻¹ and the kon worked out at 742000 M⁻¹ s⁻¹.

B7: YU100-G08_02A (antibody, V domains shown)
VH: B3 VH
VL: B3 VL with C91A
notes: C91A variant of the YU100-G08 VL
B7: in the test with Human IL-11 [6], the dissociation constant (Kd) was determined as 4.46 nM, the koff turned out to be 0.00312 s⁻¹ and the on-rate constant (kon) came to 699000 M⁻¹ s⁻¹.

B8: 01I (antibody, IgG1, V domains shown)
VH: B4 VH
VL: B5 VL with S91I
notes: C91I variant of the YU100-H01 VL
In the case of B8, in the test with Human IL-11 [7], the dissociation constant Kd turned out to be 29.2 nM, the off-rate (koff) was determined as 0.00269 s⁻¹ and the kon was 92100 M⁻¹ s⁻¹.

B9: 02L (antibody, IgG1, V domains shown)
VH: B3 VH
VL: B3 VL with C91L
notes: C91L variant of the YU100-G08 VL
On to B9, for which, in the test with Human IL-11 [6], the Kd came to 4.36 nM, the koff was 0.00202 s⁻¹ and the kon was 463000 M⁻¹ s⁻¹.

B10: 01G (antibody, IgG1, V domains shown)
VH: B4 VH
VL: B5 VL with S91G
notes: C91G variant of the YU100-H01 VL
In the test with Human IL-11 [7], B10 gave a Kd of 560 nM, a koff of 0.000986 s⁻¹ and an on-rate (kon) of 1760 M⁻¹ s⁻¹.

B11: 02Q (antibody, IgG1, V domains shown)
VH: B3 VH
VL: B3 VL with C91Q
notes: C91Q variant of the YU100-G08 VL
With B11, in the test with Human IL-11 [6], binding was characterised by a dissociation constant (Kd) of 5.84 nM, the koff was determined as 0.00249 s⁻¹ and the on-rate (kon) was determined as 426000 M⁻¹ s⁻¹.

B12: 02G (antibody, IgG1, V domains shown)
VH: B3 VH
VL: B3 VL with C91G
notes: C91G variant of the YU100-G08 VL
In the test with Human IL-11 [6], B12 gave a dissociation constant (Kd) of 1980 nM, a koff of 0.0537 s⁻¹ and a kon of 27200 M⁻¹ s⁻¹.

B13: 02V (antibody, IgG1, V domains shown)
VH: B3 VH
VL: B3 VL with C91V
notes: C91V variant of the YU100-G08 VL
As to B13, in the test with Human IL-11 [6], the dissociation constant Kd came out at 10.4 nM, the koff is 0.00215 s⁻¹ and the on-rate constant (kon) worked out at 207000 M⁻¹ s⁻¹.

B14: 02T (antibody, IgG1, V domains shown)
VH: B3 VH
VL: B3 VL with C91T
notes: C91T variant of the YU100-G08 VL
Consider B14, for which, in the test with Human IL-11 [6], binding was put at a Kd of 35 nM, the dissociation rate constant (koff) was 0.00207 s⁻¹ and the kon was 59200 M⁻¹ s⁻¹.

B15: 02S (antibody, IgG1, V domains shown)
VH: B3 VH
VL: B3 VL with C91S
notes: C91S variant of the YU100-G08 VL
In the test with Human IL-11 [6], B15 had a Kd of 4.99 nM, a koff of 0.00639 s⁻¹ and a kon of 1.28e+06 M⁻¹ s⁻¹.

B16: 01L (antibody, IgG1, V domains shown)
VH: B4 VH
VL: B5 VL with S91L
notes: C91L variant of the YU100-H01 VL
Consider B16, for which, in the test with Human IL-11 [7], the affinity, expressed as Kd, was 33.5 nM; the koff was 0.000526 s⁻¹; the kon stood at 15700 M⁻¹ s⁻¹.

B17: 01A (antibody, IgG1, V domains shown)
VH: B4 VH
VL: B5 VL with S91A
notes: C91A variant of the YU100-H01 VL
With B17, in the test with Human IL-11 [7], the dissociation constant Kd was found to be 62.6 nM, the koff came to 0.00081 s⁻¹ and the kon is 12900 M⁻¹ s⁻¹.

B18: 01V (antibody, IgG1, V domains shown)
VH: B4 VH
VL: B5 VL with S91V
notes: C91V variant of the YU100-H01 VL
In the test with Human IL-11 [7], B18 returned a dissociation constant Kd of 84.7 nM, a koff of 0.000778 s⁻¹ and a kon of 9190 M⁻¹ s⁻¹.

B19: 02I (antibody, IgG1, V domains shown)
VH: B3 VH
VL: B3 VL with C91I
notes: C91I variant of the YU100-G08 VL
For the molecule B19, in the test with Human IL-11 [6], the Kd is 2.89 nM, the koff worked out at 0.00238 s⁻¹ and the association rate constant (kon) is 825000 M⁻¹ s⁻¹.

B20: 01Q (antibody, IgG1, V domains shown)
VH: B4 VH
VL: B5 VL with S91Q
notes: C91Q variant of the YU100-H01 VL
In the test with Human IL-11 [7], B20 yielded a Kd of 104 nM, a koff of 0.000966 s⁻¹ and a kon of 9290 M⁻¹ s⁻¹.
